# Test results from IntAct's records for PubMed 16343974.
# B1: Membrane protein (Human SARS coronavirus), P59596 (parent)
# chain: MADNGTITVEELKQLLEQWNLVIGFLFLAWIMLLQFAYSNRNRFLYIIKLVFLWLLWPVTLACFVLAAVYRINWVTGGIAIAMACIVGLMWLSYFVASFRLFARTRSMWSFNPETNILLNVPLRGTIVTRPLMESELVIGAVIIRGHLRMAGHSLGRCDIKDLPKEITVATSRTLSYYKLGASQRVGTDSGFAAYNRYRIGNYKLNTDHAGSNDNIALLVQ
# Variants of: B1
# Settings: with ncap_sars N
row,Variant,effect of a mutation on the interaction
1,L218A;L219A,with no effect
